Drawing on paper PMC8477192, “An ionic lock and a hydrophobic zipper mediate the coupling between an insect pheromone receptor BmOR3 and downstream effectors” (The Journal of Biological Chemistry, 2021), this text covers BRET50 (receptor expression ratio) (receptor expression ratio) and EC50 of bombykal for the BRET increase for 1 substance.

Assay [1] addresses YFP-BmOrco (Bombyx mori). Description: FRET or BRET; saturation BRET in living HEK293 cells, no agonist; fixed Rluc donor, increasing YFP acceptor plasmid; coelenterazine h 5 μM; Lyn-YFP as negative control.
For assay [2], the target named is YFP-BmOrco (Bombyx mori). Description: FRET or BRET; intermolecular BRET in living HEK293 cells after bombykal for 5 min (dose response or ΔBRET); Rluc-BmOR3 with YFP-BmOrco, or Rluc-BmOrco with YFP-BmOR3; pretreatment with 100 ng/ml pertussis toxin without significant effect. For orientation: Bioluminescence resonance energy transfer reports proximity on the nanometre scale.

With Rluc-BmOR3 (receptor), the BRET50 (receptor expression ratio) (receptor expression ratio) with YFP-BmOrco (Bombyx mori) [1] was determined as 1. Also, the EC50 of bombykal for the BRET increase in the assay with YFP-BmOrco (Bombyx mori) [2] came out at 36 nM.
